PMC8866402

What was measured:
[1] = target: recombinant mouse TGF-β1 (mouse)
[2] = target: recombinant human TGF-β1 produced in-house (human)
Sequence of recombinant human TGF-β1 produced in-house (human) (P01137 279-390): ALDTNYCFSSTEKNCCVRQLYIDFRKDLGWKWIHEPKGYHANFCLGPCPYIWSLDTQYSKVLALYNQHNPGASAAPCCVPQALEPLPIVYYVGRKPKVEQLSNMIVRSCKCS

Sequence of recombinant mouse TGF-β1 (mouse) (P04202 279-390): as the sequence (P01137 279-390) above, with A75S counted along it

SEAP reporter (SBE) activity of MFB-F11 cells stimulated with 156 pM TGF-β1 pre-incubated with 0, 19.5 or 195 nM strep-tag-fortilin; value given is at 195 nM fortilin [1]: 6.3 A.U.
SBE-luciferase activity (firefly/Renilla) in HEK293 cells treated with TGF-β1 (1 nM) without vs with strep-tag-fortilin (3 nM); value given is with fortilin [2]: 5.4 A.U.
B1: strep-tag-fortilin (recombinant human fortilin with an N-terminal Strep-tag II) (natural protein)
chain: MIIYRDLISHDEMFSDIYKIREIADGLCLEVEGKMVSRTEGNIDDSLIGGNASAEGPEGEGTESTVITGVDIVMNHHLQETSFTKEAYKKYIKDYMKSIKGKLEEQRPERVKPFMTGAAEQIKHILANFKNYQFFIGENMNPDGMVALLDYREDGVTPYMIFFKDGLEMEKC
